Assay results taken from patent publication US11110182B2, “Multifunctional RNA nanoparticles and methods for treating cancer and therapeutic resistant cancer” (University of Cincinnati, priority 2016, dated 2021).

Test system: ERα target genes TFF-1, c-Myc, cyclin D1 and MMP-9
Assay: Gene expression in xenograft tumor tissues by real-time PCR
Type: in vivo, athymic nude mice
From the text: FIG. 6A) Whole lung tissues were fixed, embedded, and sectioned for H&E staining, and FIG. 6B) metastasis foci in the whole lung tissues were then counted. Arrow indicates the metastasis foci. Scale bar: 100 μm. FIG. 6C) After digesting tumor tissues with trypsin and 0.1% collagenase, tumor cells were stained for CD44 and CD24, and FIG. 6D) analyzed for CD44^+CD24^−/low stem cell population using flow cytometry. FIG. 6E) Total RNA in the tumor tissues was extracted using TRIZOL reagent, and the expression of TFF-1, FIG. 6F) c-Myc, FIG. 6G) cyclin D1, and FIG. 6H) MMP-9 were determined by real-time PCR.
Cell culture. Human breast cancer luciferase-overexpressing BT474 and MDA-MB-231 cells were maintained in DMEM medium (Hyclone, Thermo Scientific) supplemented with 10% fetal bovine serum (FBS, Sigma) and 1% penicillin/streptomycin (Corning) at 37° C. in a humidified atmosphere with 5% CO2.^53 • Generation of pRNA nanoparticles. The two strands of pRNA were synthesized with the DNA templates, which were amplified with overlapping primers (Sigma) by PCR methods, using a T7 promoter-controlled in vitro RNA transcription system as previously described^33 (Table 1). All the CTP and UTP used for synthesis of the pRNA nanoparticles were 2′-fluoro modified, except the control unmodified pRNA nanoparticles used in the stability assays. Following an overnight transcription at 37° C., RNA strands were purified using RNA clean and concentrator kits (ZYMO research) and examined by 8 M urea denatured 8% PAGE gel. pRNA nanoparticles were assembled by mixing the equal molar amounts of p1 and p2 strands and gradually annealing from 90° C. to 20° C. in 1×RNA annealing buffer containing 50 mM Tris-HCl (pH 7.5), 50 mM NaCl and 1 mM EDTA on a PCR machine. The generated pRNA nanoparticles were examined by 8% native PAGE gels as previously described.^33 To generate AF647-conjugated pRNA nanoparticles, a 5′-termial AF647-conjugated RNA strand was synthesized (TriLink) for annealing. • Characterization of pRNA nanoparticles. The hydrodynamic diameter and Tm value of pRNA nanoparticles were determined using dynamic light scattering and TGGE assay, respectively, as previously described.^54 The AFM imaging of the pRNA nanoparticles was performed at the University of Nebraska Medical Center imaging facility as previously reported.^55 Briefly, the pRNA nanoparticles (5 μL) were deposited on APS modified mica ^56 for a total of 2 min of incubation time. Excess samples were washed with DI water and dried under a flow of Argon gas. AFM images in air were acquired using MultiMode AFM NanoScope IV system (Bruker Instruments) operating in tapping mode with 1.5 Hz scanning rate. TESPA probes from Bruker were used for tapping mode imaging. […] For stability analyses, the pRNA nanoparticles were treated with RNase A, 8 M urea, or 10% FBS supplemented DMEM medium at 37° C., respectively. The integrity of the pRNA nanoparticles was examined through native PAGE gel electrophoresis. • pRNA nanoparticle cellular uptake assay. BT474 and MDA-MB-231 cells were seeded into 4-well Lab-Tek chamber slides (Nalge Nunc international, Thermo scientific) and incubated with 10 μg/mL AF647-conjugated pRNAs at 4° C. for 30 min. After washing with PBS for three times, cells were incubated at 37° C. for another hour. Cells were then fixed with 4% formaldehyde, permeated with 0.25% Trinton X-100, and stained with FITC-conjugated β-actin antibody (Sigma) and DAPI (Sigma). pRNA nanoparticle uptake was examined using a laser scanning confocal microscope (Zeiss). For flow cytometry analyses, BT474 cells were incubated with AF647-labeled pRNA nanoparticles at 37° C. for 3 h. After washing three times with PBS, the cellular uptake of pRNAs was determined using a BD LSRFortessa™ flow cytometer. • Real-time PCR. […]

B1: pRNA-HER2apt-siMED1: 3-WJ pRNA nanoparticle bearing a HER2-targeting RNA aptamer and two different MED1 siRNAs; strands p1 SEQ ID NO: 3, p2 SEQ ID NO: 4 (nucleic acid)
chain 1: GGACAGUGAAAGUGAGUCAAAGGAUCAAUCAUGGCCAAAGAUGUUACUUUGAGAGCCUU
chain 2: GGCUCUCAAAGUAACAUCUAAGGCCAUGUGUAUGUGGGGGGAGGACGAUGCGGUCUGCUGUGCUUGAUAUGCCCCAGACGACUCGCCCCCCACAUACUUUGUUGAUCCAAUGACUCACUUUCACUGUCCUU
modifications: 2'-F modification; third strand may lack entry; pRNA-HER2apt-siMED1, p1; pRNA-HER2apt-siMED1, p2
MMP-9 expression in tumor tissues (combined with tamoxifen): further inhibited
TFF-1 expression in tumor tissues (combined with tamoxifen): further inhibited
c-Myc expression in tumor tissues (combined with tamoxifen): further inhibited
cyclin D1 expression in tumor tissues (combined with tamoxifen): further inhibited
MMP-9 expression in tumor tissues (pRNA treatment): significantly down-regulated
TFF-1 expression in tumor tissues (pRNA treatment): significantly down-regulated
c-Myc expression in tumor tissues (pRNA treatment): significantly down-regulated
cyclin D1 expression in tumor tissues (pRNA treatment): significantly down-regulated
